In US9862971B2 (BUNDESREPUBLIK DEUTSCHLAND, LETZTVERTRETEN DURCH DEN …, dated 2018):

Key:
Assay in all cases: cell-based or functional assay
CD46 = CD46 (human, UniProt P15529)
EGF-receptor = EGF-receptor (Homo sapiens (Human), UniProt P00533)
Human SLAM (signaling …) = molecular target: T1, Human SLAM (signaling lymphocyte-activation molecule) (human, UniProt Q13291)
T1 sequence: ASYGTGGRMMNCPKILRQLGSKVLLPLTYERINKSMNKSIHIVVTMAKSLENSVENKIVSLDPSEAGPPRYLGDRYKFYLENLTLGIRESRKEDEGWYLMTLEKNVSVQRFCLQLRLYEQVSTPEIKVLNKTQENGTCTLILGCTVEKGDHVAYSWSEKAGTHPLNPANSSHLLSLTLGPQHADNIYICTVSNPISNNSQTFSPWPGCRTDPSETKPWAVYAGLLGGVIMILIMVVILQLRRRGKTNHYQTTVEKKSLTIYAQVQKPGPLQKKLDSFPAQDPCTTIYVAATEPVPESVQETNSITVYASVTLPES

B1: HmutEGFΔ18 (other)
chain: MGSRIVINREHLMIDRPYVLLAVLFVMFLSLIGLLAIAGIRLHRAAIYTAEIHKSLSTNLDVTNSIEHQVKDVLTPLFKIIGDEVGLRTPQRFTDLVKFISDKIKFLNPDREYDFRDLTWCINPPERIKLDYDQYCADVAAEELMNALVNSTLLETRTTNQFLAVSKGNCSGPTTIRGQFSNMSLSLLDLYLGRGYNVSSIVTMTSQGMYGGTYLVEKPNLSSKRSELSQLSMYRVFEVGVIRNPGLGAPVFHMTNYLEQPVSNDLSNCMVALGELKLAALCHGEDSITIPYQGSGKGVSFQLVKLGVWKSPTDMQSWVPLSTDDPVIDRLYLSSHRGVIADNQAKWAVPTTRTDDKLRMETCFQQACKGKIQALCENPEWAPLKDNRIPSYGVLSVDLSLTVELKIKIASGFGPLITHGSGMDLYKSNHNNVYWLTIPPMKNLALGVINTLEWIPRFKVSPALFTVPIKEAGGDCHAPTYLPAEVDGDVKLSSNLVILPGQDLQYVLATYDTSAVEHAVVYYVYSPSRLSSYFYPFRLPIKGVPIELQVECFTWDQKLWCRHFCVLADSESGGHITHSGMVGMGVSCTVTREDGTNAAQPAMANSDSECPLSHDGYCLHDGVCMYIEALDKYACNCVVGYIGERCQYRDLKWWELRAAARGSHHHHHH
- titer [t.u./ml] of HIV-1 vector particles on CHO-BC1 cells, concentrated supernatant (CD46): 0 t.u./ml
- titer [t.u./ml] of HIV-1 vector particles on A-431 cells, concentrated supernatant (EGF-receptor): 270000 t.u./ml
- titer [t.u./ml] of HIV-1 vector particles on CHO-hSLAM cells, concentrated supernatant (Human SLAM (signaling …)): 280 t.u./ml

B2: HmutEGFΔ24+4A (other)
chain: MAAAANREHLMIDRPYVLLAVLFVMFLSLIGLLAIAGIRLHRAAIYTAEIHKSLSTNLDVTNSIEHQVKDVLTPLFKIIGDEVGLRTPQRFTDLVKFISDKIKFLNPDREYDFRDLTWCINPPERIKLDYDQYCADVAAEELMNALVNSTLLETRTTNQFLAVSKGNCSGPTTIRGQFSNMSLSLLDLYLGRGYNVSSIVTMTSQGMYGGTYLVEKPNLSSKRSELSQLSMYRVFEVGVIRNPGLGAPVFHMTNYLEQPVSNDLSNCMVALGELKLAALCHGEDSITIPYQGSGKGVSFQLVKLGVWKSPTDMQSWVPLSTDDPVIDRLYLSSHRGVIADNQAKWAVPTTRTDDKLRMETCFQQACKGKIQALCENPEWAPLKDNRIPSYGVLSVDLSLTVELKIKIASGFGPLITHGSGMDLYKSNHNNVYWLTIPPMKNLALGVINTLEWIPRFKVSPALFTVPIKEAGGDCHAPTYLPAEVDGDVKLSSNLVILPGQDLQYVLATYDTSAVEHAVVYYVYSPSRLSSYFYPFRLPIKGVPIELQVECFTWDQKLWCRHFCVLADSESGGHITHSGMVGMGVSCTVTREDGTNAAQPAMANSDSECPLSHDGYCLHDGVCMYIEALDKYACNCVVGYIGERCQYRDLKWWELRAAARGSHHHHHH
- titer [t.u./ml] of HIV-1 vector particles on CHO-BC1 cells, concentrated supernatant (CD46): 800 t.u./ml
- titer [t.u./ml] of HIV-1 vector particles on A-431 cells, concentrated supernatant (EGF-receptor): 58000 t.u./ml
- titer [t.u./ml] of HIV-1 vector particles on CHO-hSLAM cells, concentrated supernatant (Human SLAM (signaling …)): 960 t.u./ml

B3: HmutEGFΔ19 (other)
chain: MSRIVINREHLMIDRPYVLLAVLFVMFLSLIGLLAIAGIRLHRAAIYTAEIHKSLSTNLDVTNSIEHQVKDVLTPLFKIIGDEVGLRTPQRFTDLVKFISDKIKFLNPDREYDFRDLTWCINPPERIKLDYDQYCADVAAEELMNALVNSTLLETRTTNQFLAVSKGNCSGPTTIRGQFSNMSLSLLDLYLGRGYNVSSIVTMTSQGMYGGTYLVEKPNLSSKRSELSQLSMYRVFEVGVIRNPGLGAPVFHMTNYLEQPVSNDLSNCMVALGELKLAALCHGEDSITIPYQGSGKGVSFQLVKLGVWKSPTDMQSWVPLSTDDPVIDRLYLSSHRGVIADNQAKWAVPTTRTDDKLRMETCFQQACKGKIQALCENPEWAPLKDNRIPSYGVLSVDLSLTVELKIKIASGFGPLITHGSGMDLYKSNHNNVYWLTIPPMKNLALGVINTLEWIPRFKVSPALFTVPIKEAGGDCHAPTYLPAEVDGDVKLSSNLVILPGQDLQYVLATYDTSAVEHAVVYYVYSPSRLSSYFYPFRLPIKGVPIELQVECFTWDQKLWCRHFCVLADSESGGHITHSGMVGMGVSCTVTREDGTNAAQPAMANSDSECPLSHDGYCLHDGVCMYIEALDKYACNCVVGYIGERCQYRDLKWWELRAAARGSHHHHHH
- titer [t.u./ml] of HIV-1 vector particles on CHO-BC1 cells, concentrated supernatant (CD46): 0 t.u./ml
- titer [t.u./ml] of HIV-1 vector particles on A-431 cells, concentrated supernatant (EGF-receptor): 22000 t.u./ml
- titer [t.u./ml] of HIV-1 vector particles on CHO-hSLAM cells, concentrated supernatant (Human SLAM (signaling …)): 160 t.u./ml
